Test results published in publication PMC9482650, “Quantitative fragmentomics allow affinity mapping of interactomes” (Nature Communications, 2022).

What was measured:
Assay in all cases: holdup assay
Set-up in all cases: key: below the threshold = too weak to quantify, mostly under pKd 3.1 to 4
GOPC, Q9HD26 = target: GOPC, Q9HD26
NHERF4_1, Q86UT5-2 = target: NHERF4_1, Q86UT5-2
LIMK2, P53671 = target: LIMK2, P53671
DLG1_3, Q12959 = target: DLG1_3, Q12959
SNX27, Q96L92 = target: SNX27, Q96L92
GRIP1_7, Q9Y3R0 = target: T1, GRIP1_7, Q9Y3R0
T1 sequence (Q9Y3R0 999-1096, limits assumed, looked up): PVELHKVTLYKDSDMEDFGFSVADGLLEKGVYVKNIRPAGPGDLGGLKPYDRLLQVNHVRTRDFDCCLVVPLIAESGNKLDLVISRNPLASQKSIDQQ

SCRIB_1, Q14160 = target: SCRIB_1, Q14160
Chain of SCRIB_1, Q14160 (Q14160 718-814): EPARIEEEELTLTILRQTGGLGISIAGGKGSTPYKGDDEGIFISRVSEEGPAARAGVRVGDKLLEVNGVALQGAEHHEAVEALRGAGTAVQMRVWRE

DLG4_1, P78352 = target: DLG4_1, P78352
Chain of DLG4_1, P78352 (P78352 62-152): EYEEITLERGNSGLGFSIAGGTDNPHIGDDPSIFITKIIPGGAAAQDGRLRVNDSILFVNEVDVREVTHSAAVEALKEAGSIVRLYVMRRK

GORASP2, Q9H8Y8 = target: GORASP2, Q9H8Y8
SCRIB_2, Q14160 = target: SCRIB_2, Q14160
Chain of SCRIB_2, Q14160 (Q14160 857-960): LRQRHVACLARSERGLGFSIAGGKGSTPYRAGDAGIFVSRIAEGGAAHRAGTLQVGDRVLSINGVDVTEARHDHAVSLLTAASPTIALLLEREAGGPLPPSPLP

DFNB31_3, Q9P202 = target: T2, DFNB31_3, Q9P202
T2 sequence (Q9P202 811-907, limits assumed, looked up): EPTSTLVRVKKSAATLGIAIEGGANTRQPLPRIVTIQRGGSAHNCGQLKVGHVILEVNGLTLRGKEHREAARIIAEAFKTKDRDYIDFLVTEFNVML

MAGI2_5, Q86UL8 = target: MAGI2_5, Q86UL8
Chain of MAGI2_5, Q86UL8 (Q86UL8 915-1017): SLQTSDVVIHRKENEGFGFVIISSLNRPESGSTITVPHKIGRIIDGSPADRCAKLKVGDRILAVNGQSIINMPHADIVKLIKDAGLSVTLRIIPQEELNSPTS

PDZD2_2, O15018 = target: T3, PDZD2_2, O15018
T3 sequence (O15018 329-429, limits assumed, looked up): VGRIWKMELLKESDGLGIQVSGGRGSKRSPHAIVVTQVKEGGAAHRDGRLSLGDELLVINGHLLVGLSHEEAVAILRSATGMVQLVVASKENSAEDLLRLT

TJP3_3, O95049 = target: T4, TJP3_3, O95049
T4 sequence (O95049 375-456, limits assumed, looked up): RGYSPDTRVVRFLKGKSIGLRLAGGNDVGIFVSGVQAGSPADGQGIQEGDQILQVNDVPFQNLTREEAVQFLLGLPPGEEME

GRIP2_3, Q9C0E4 = target: GRIP2_3, Q9C0E4
Chain of GRIP2_3, Q9C0E4 (Q9C0E4 238-339): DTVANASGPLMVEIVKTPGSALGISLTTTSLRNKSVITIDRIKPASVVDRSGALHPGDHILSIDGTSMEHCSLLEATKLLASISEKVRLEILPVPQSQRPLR

DLG4_3, P78352 = target: DLG4_3, P78352
Chain of DLG4_3, P78352 (P78352 306-403): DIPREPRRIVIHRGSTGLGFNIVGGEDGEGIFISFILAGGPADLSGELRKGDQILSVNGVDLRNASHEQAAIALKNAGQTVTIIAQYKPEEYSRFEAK

FRMPD4, Q14CM0 = target: FRMPD4, Q14CM0
Chain of FRMPD4, Q14CM0 (Q14CM0 67-160): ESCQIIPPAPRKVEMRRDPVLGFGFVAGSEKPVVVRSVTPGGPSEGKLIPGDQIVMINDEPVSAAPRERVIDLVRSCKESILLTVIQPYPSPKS

LNX1_1, Q8TBB1 = target: LNX1_1, Q8TBB1
Chain of LNX1_1, Q8TBB1 (Q8TBB1 261-371): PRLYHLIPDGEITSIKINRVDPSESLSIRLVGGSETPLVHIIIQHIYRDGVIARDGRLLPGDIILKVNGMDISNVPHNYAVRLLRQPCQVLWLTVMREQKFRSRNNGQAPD

MAST2, Q6P0Q8 = target: MAST2, Q6P0Q8
Chain of MAST2, Q6P0Q8 (Q6P0Q8 1099-1202): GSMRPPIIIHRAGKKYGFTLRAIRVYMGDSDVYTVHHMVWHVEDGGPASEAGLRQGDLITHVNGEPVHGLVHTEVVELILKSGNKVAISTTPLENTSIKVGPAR

MAGI2_3, Q86UL8 = target: MAGI2_3, Q86UL8
Chain of MAGI2_3, Q86UL8 (Q86UL8 600-682): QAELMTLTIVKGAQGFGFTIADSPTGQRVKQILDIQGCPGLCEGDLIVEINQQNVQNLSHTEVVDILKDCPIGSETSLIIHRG

Inadl_2, Q8NI35 = target: Inadl_2, Q8NI35
Chain of Inadl_2, Q8NI35 (Q8NI35 238-335): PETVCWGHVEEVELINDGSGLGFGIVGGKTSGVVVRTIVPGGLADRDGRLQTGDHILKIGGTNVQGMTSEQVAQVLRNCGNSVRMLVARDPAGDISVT

NHERF4_4, Q86UT5 = target: NHERF4_4, Q86UT5
Chain of NHERF4_4, Q86UT5 (Q86UT5 464-550): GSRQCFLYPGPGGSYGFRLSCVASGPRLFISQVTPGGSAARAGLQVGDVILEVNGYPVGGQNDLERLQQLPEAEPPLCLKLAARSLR

HTRA4, P83105 = target: T5, HTRA4, P83105
T5 sequence (P83105 378-476, limits assumed, looked up): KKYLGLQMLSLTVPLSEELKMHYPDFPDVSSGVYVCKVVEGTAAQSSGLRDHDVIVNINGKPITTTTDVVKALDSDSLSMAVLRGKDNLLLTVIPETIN

DLG3_3, Q92796 = target: T6, DLG3_3, Q92796
T6 sequence (Q92796 374-475, limits assumed, looked up): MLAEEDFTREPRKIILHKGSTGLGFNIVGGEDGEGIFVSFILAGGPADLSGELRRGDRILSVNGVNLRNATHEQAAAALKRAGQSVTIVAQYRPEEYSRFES

Inadl_8, Q8NI35 = target: Inadl_8, Q8NI35
Chain of Inadl_8, Q8NI35 (Q8NI35 1425-1530): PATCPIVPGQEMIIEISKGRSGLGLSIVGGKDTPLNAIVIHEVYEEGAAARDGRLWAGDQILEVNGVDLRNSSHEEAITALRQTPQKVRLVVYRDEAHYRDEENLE

FRMPD2_1, Q68DX3 = target: FRMPD2_1, Q68DX3
Chain of FRMPD2_1, Q68DX3 (Q68DX3 770-861): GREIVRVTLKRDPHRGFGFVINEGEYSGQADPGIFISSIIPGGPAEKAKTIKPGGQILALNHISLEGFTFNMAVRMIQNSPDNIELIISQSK

DLG4_2, P78352 = target: DLG4_2, P78352
Chain of DLG4_2, P78352 (P78352 155-259): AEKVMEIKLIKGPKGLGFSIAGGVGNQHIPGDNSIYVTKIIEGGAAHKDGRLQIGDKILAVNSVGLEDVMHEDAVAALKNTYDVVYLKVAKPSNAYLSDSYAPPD

LNX1_3, Q8TBB1 = target: LNX1_3, Q8TBB1
Chain of LNX1_3, Q8TBB1 (Q8TBB1 500-596): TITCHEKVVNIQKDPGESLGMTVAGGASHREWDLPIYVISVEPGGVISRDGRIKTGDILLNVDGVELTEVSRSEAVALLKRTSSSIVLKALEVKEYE

NHERF3_1, Q5T2W1 = target: T7, NHERF3_1, Q5T2W1
T7 sequence (Q5T2W1 4-100, limits assumed, looked up): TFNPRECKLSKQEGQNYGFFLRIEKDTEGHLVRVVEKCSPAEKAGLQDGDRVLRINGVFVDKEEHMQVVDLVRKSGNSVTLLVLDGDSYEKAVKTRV

APBA2_1, Q99767 = target: T8, APBA2_1, Q99767
T8 sequence (Q99767 563-664, limits assumed, looked up): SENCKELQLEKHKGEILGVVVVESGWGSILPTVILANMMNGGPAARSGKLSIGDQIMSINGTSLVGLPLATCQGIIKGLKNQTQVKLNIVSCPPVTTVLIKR

DLG2_2, Q15700 = target: DLG2_2, Q15700
Chain of DLG2_2, Q15700 (Q15700 189-283): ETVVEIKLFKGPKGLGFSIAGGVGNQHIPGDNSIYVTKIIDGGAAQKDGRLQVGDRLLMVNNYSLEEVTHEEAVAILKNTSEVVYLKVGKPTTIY

[1] = plain residues with an end cap or a label only (N-terminal biotin on a linker: ado-ado)
[2] = plain residues with an end cap or a label only (N-terminal biotin on a linker: ttds)

Chain of NHERF4_1, Q86UT5-2 (Q86UT5 other isoform, or with tags, fused parts or gaps): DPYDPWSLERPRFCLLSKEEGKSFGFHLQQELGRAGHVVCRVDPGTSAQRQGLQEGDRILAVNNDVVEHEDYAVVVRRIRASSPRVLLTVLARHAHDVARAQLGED
Chain of LIMK2, P53671 (P53671 143-248): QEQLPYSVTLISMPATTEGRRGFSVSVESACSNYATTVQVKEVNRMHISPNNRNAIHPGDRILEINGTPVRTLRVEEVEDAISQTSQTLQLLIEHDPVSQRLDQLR
Chain of DLG1_3, Q12959 (Q12959 457-571): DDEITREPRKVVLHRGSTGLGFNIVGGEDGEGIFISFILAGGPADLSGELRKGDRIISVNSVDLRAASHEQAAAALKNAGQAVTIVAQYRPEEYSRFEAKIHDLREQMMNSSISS

TETASVCTKV [SLC23A1, Q9UHI7]
pKd (GOPC, Q9HD26; [1]): 4.17
pKd (NHERF4_1, Q86UT5-2; [1]): 4.53
pKd (LIMK2, P53671; [1]): below the threshold
pKd (DLG1_3, Q12959; [1]): below the threshold
pKd (SNX27, Q96L92; [1]): 4.85
pKd (GRIP1_7, Q9Y3R0; [1]): below the threshold
pKd (SCRIB_1, Q14160; [1]): 3.99
pKd (DLG4_1, P78352; [1]): 3.9
pKd (GORASP2, Q9H8Y8; [1]): 4.17
pKd (SCRIB_2, Q14160; [1]): 3.77
pKd (DFNB31_3, Q9P202; [1]): below the threshold
pKd (MAGI2_5, Q86UL8; [1]): 4.46
pKd (PDZD2_2, O15018; [1]): 4.12
pKd (TJP3_3, O95049; [1]): below the threshold
pKd (GRIP2_3, Q9C0E4; [1]): below the threshold
pKd (DLG4_3, P78352; [1]): below the threshold
pKd (FRMPD4, Q14CM0; [1]): below the threshold
pKd (LNX1_1, Q8TBB1; [1]): 3.73
pKd (MAST2, Q6P0Q8; [1]): 5.47
pKd (MAGI2_3, Q86UL8; [1]): 4.16
pKd (Inadl_2, Q8NI35; [1]): below the threshold
pKd (NHERF4_4, Q86UT5; [1]): 3.89
pKd (HTRA4, P83105; [1]): 4.15
pKd (DLG3_3, Q92796; [1]): below the threshold
pKd (Inadl_8, Q8NI35; [1]): 4.01
pKd (FRMPD2_1, Q68DX3; [1]): 3.76
pKd (DLG4_2, P78352; [1]): 4.15
pKd (LNX1_3, Q8TBB1; [1]): 3.5
pKd (NHERF3_1, Q5T2W1; [1]): 4.54
pKd (APBA2_1, Q99767; [1]): below the threshold
pKd (DLG2_2, Q15700; [1]): 3.99

QFQYAKESYI [TAGAP, Q8N103]
pKd (GOPC, Q9HD26; [2]): 3.95
pKd (NHERF4_1, Q86UT5-2; [2]): below the threshold
pKd (LIMK2, P53671; [2]): below the threshold
pKd (DLG1_3, Q12959; [2]): 4.05
pKd (SNX27, Q96L92; [2]): 3.75
pKd (GRIP1_7, Q9Y3R0; [2]): below the threshold
pKd (SCRIB_1, Q14160; [2]): 3.72
pKd (DLG4_1, P78352; [2]): 3.9
pKd (GORASP2, Q9H8Y8; [2]): 3.9
pKd (SCRIB_2, Q14160; [2]): 3.56
pKd (DFNB31_3, Q9P202; [2]): below the threshold
pKd (MAGI2_5, Q86UL8; [2]): below the threshold
pKd (PDZD2_2, O15018; [2]): 5.04
pKd (TJP3_3, O95049; [2]): below the threshold
pKd (GRIP2_3, Q9C0E4; [2]): below the threshold
pKd (DLG4_3, P78352; [2]): 3.55
pKd (FRMPD4, Q14CM0; [2]): below the threshold
pKd (LNX1_1, Q8TBB1; [2]): 3.66
pKd (MAST2, Q6P0Q8; [2]): 4.69
pKd (MAGI2_3, Q86UL8; [2]): below the threshold
pKd (Inadl_2, Q8NI35; [2]): below the threshold
pKd (NHERF4_4, Q86UT5; [2]): below the threshold
pKd (HTRA4, P83105; [2]): below the threshold
pKd (DLG3_3, Q92796; [2]): 3.57
pKd (Inadl_8, Q8NI35; [2]): 3.78
pKd (FRMPD2_1, Q68DX3; [2]): below the threshold
pKd (DLG4_2, P78352; [2]): 4.41
pKd (LNX1_3, Q8TBB1; [2]): below the threshold
pKd (NHERF3_1, Q5T2W1; [2]): 5.08
pKd (APBA2_1, Q99767; [2]): below the threshold
pKd (DLG2_2, Q15700; [2]): 4.16
